From publication PMC2583361 come the findings set out here.

The target in the assay is SSB C-terminal peptide (SSB-Ct peptide) (E. coli). Put plainly: ITC. (Isothermal titration calorimetry measures the heat released or taken up as one component is titrated into another.)

Sequence of PriA DNA helicase (P17888 whole entry): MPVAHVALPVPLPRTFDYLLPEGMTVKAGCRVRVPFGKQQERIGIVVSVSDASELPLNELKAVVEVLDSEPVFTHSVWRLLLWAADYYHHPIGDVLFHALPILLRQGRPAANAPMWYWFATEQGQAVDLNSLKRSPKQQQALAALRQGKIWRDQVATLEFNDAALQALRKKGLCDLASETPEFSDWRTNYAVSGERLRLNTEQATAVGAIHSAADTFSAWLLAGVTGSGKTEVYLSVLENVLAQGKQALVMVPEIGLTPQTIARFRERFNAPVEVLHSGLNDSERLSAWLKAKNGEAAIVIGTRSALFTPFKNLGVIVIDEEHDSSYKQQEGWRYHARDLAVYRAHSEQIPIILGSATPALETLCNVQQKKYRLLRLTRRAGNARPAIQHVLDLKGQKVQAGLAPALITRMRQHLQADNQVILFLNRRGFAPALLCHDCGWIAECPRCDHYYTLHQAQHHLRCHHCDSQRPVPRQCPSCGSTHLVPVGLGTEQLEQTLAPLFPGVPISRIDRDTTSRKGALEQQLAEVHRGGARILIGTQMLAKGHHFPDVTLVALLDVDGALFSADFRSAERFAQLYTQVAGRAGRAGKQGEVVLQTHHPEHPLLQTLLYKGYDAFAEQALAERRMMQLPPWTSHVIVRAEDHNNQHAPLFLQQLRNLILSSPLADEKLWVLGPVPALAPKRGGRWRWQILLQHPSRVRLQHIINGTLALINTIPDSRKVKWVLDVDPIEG
Sequence of χ subunit of the DNA polymerase III holoenzyme (P28905 whole entry): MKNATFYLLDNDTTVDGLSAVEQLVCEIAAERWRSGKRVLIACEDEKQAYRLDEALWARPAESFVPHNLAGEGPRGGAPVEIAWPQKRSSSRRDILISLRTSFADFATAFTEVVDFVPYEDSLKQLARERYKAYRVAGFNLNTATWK

Substance “PriA DNA helicase (from UniProt P17888 1-732) (enzyme)” gave a Ka of 1.8e+06 M⁻¹ and a dH of -6.9 kcal/mol.

“χ subunit of the DNA polymerase III holoenzyme (from UniProt P28905 1-147) (natural protein)” registered a dH of -8.6 kcal/mol.
